Experimental data reported in publication PMC12282171, “VCY mediates inhibition of PFV replication via interaction with the transcription activator Tas” (Journal of Virology, 2025).

Biological target: His-VCY (human, UniProt O14598 1-125)
Experiment: pull-down; purified His-VCY added to purified GST-Tas or GST coupled to glutathione sepharose, 3 h at 4 °C; western blot
Settings: both partners purified

B1: GST-Tas (natural protein)
chain: MDSYEKEESVASTSGIQDLQTLSELVGPENAGEGELTIAEEPEENPRRPRRYTKREVKCVSYHAYKEIEDKHPQHIKLQDWIPTPEEMSKSLCKRLILCGLYSAEKASEILRMPFTVSWEQSDTDPDCFIVSYTCIFCDAVIHDPMPIRWDPEVGIWVKYKPLRGIVGSAVFIMHKHQRNCSLVKPSTSCSEGPKPRPRHDPVLRCDMFEKHHKPRQKRPRRRSIDNESCASSSDTMANEPGSLCTNPLWNPGPLLSGLLEESSNLPNLEVHMSGGPFWEEVYGDSILGPPSGSGEHSVL
notes: also called recombinant GST-Tas; pGST-Tas; source: E. coli BL21, purified (GST column)
binding result: binds
